# From patent US20220401560A1, “PEPTIDE ENCAPSULATING FERRITIN” (Ajinomoto Co., Inc., priority 2019, published 2022)
# No end group written: not given here.
# Experiments:
# ferritin (FTH) [1] = molecular target: T1, ferritin (FTH) (Homo sapiens, UniProt P02794); test: Encapsulation of fluorescent dye-modified peptide into FTH, column chromatography with absorbance at 480 nm and LC-MS
# T1 construct: made in house; host or cells: Escherichia coli BL21 (DE3), plasmid pET20-FTH
# Protocol: Of a 50 mM glycine hydrochloride buffer (pH 2.3) that contains FTH (chemical formula weight: 509,421) at a final concentration of 5 mg/mL and the peptide at a final concentration of 0.5 mM, 0.5 mL was left to stand at room temperature for 15 minutes. Next, 50 μL of a 1 M Tris hydrochloride buffer (pH 9.0) was added for neutralization, and the resulting solution was left to stand at room temperature for 3 hours. After the standing, the resulting solution was centrifuged (at 15,000 rpm for one minute). Then, the supernatant was collected and the volume was increased up to 3 mL with a 10 mM Tris hydrochloride buffer (pH 8). The resulting solution was injected into the HiPrep 26/60 Sephacryl S-300 HR column (GE Healthcare Inc.) equilibrated with a 10 mM Tris-HCl buffer (pH 8.0) to separate and purify 24-mer FTH by size at a flow rate of 1.3 mL/minute. The purified ferritin was analyzed using a HiPrep 16/60 Sephacryl S-300 HR column (GE Healthcare Inc.) equilibrated with a 10 mM Tris-HCl buffer (pH 8.0) at a flow rate of 0.5 mL/minute and confirmed as the absorbance at 480 nm unobservable from FTH only, at the same position as that of a peak of FTH.
# The solution containing the FTH was concentrated to 0.25 mL by centrifugal ultrafiltration using Vivaspin 20-100K (GE Healthcare Inc.). […] For the LC-MS analysis, 50 μL of a 1 M glycine hydrochloride buffer (pH 2.3) was added to 50 μL of the sample solution and then the resulting solution was left to stand at room temperature for 15 minutes. To the solution 900 μL of ethanol was added. Next, the resulting solution was stirred vigorously and then centrifuged (at 15,000 rpm for five minutes) to collect its supernatant. The supernatant was analyzed using LCMS-2020 (Shimadzu Corporation) as LC-MS, inertsil (Registered trademark) ODS-3 with a particle diameter of 2 μm and 2.1 mm×50 mm (GL science) as a column. Into the column, 10 μL of the sample was injected, and eluded at a flow rate of 0.2 mL/min for 10 minutes such that a mixing ratio of a solution A (0.1% formic acid/99.9% acetonitrile) and a solution B (50% water/50% acetonitrile) was from 95:5 to 95:5. The concentration of the contained protein was determined using a protein assay CBB solution (Nacalai Tesque, Inc.) in terms of bovine albumin as a standard. The concentration of the encapsulated peptide was determined based on the absorbance at 480 nm of the fluorescent dye FAM to which PKC-F is modified.
# First, the construction of FTH encapsulating two kinds of fluorescent dye-modified peptides [5(6)—FAM-[…] (SEQ ID NO: 10), FAM-SV40, chemical formula weight 1,516, and 5(6)—FAM-[…] […] (SEQ ID NO: 11), FAN-Np, chemical formula weight 384] was attempted. 0.5 mL of a 50 mM glycine hydrochloride buffer (pH 2.3) that contains FTH (chemical formula weight 509,421) at a final concentration of 5 mg/mL and a peptide at a final concentration of 0.5 mM, was left to stand at room temperature for 15 minutes. Next, 50 μL of a 1 M Tris hydrochloride buffer (pH 9.0) was added for neutralization, and the resulting solution was left to stand at room temperature for 3 hours. […] The absorbance at […] was confirmed at the same elusion position as that of ferritin 24-mer, for ferritin that was used for the operation to encapsulate FAM-SV40 therein. […] Next, the peptide amount of FAM-SV40 encapsulated in purified ferritin was quantified based on the 480 nm absorbance and by CBB staining with use of ferritin-amount-albumin as a standard.
# SKBR-3 cell = test: Cell incorporation observed with two-photon excitation fluorescence microscope; assay type: cell-based, human; details: 24 hours, same conditions as FACS test
# ferritin (FTL) = molecular target: T2, ferritin (FTL) (Homo sapiens, UniProt P02792); test: Encapsulation of fluorescent dye-modified peptide into FTL, column chromatography with absorbance at 480 nm; details: absorbance at 480 nm at the position of the FTL peak
# T2 construct: made in house; host or cells: Escherichia coli BL21 (DE3), plasmid pET20-FTL
# Protocol: 0.5 mL of a 50 mM glycine hydrochloride buffer (pH 2.3) that contains FTL (chemical formula weight 480,466) at a final concentration of 5 mg/mL and the peptide at a final concentration of 0.5 mM, was left to stand at room temperature for 15 minutes. Next, 50 μL of a 1 M Tris hydrochloride buffer (pH 9.0) was added for neutralization, and the resulting solution was left to stand at room temperature for 3 hours. After the standing, the resulting solution was centrifuged (at 15,000 rpm for one minute). Then, the supernatant was collected and diluted with a 10 mM Tris hydrochloride buffer (pH 8) up to 3 mL in volume. The resulting solution was injected into the HiPrep 26/60 Sephacryl S-300 HR column (GE Healthcare Inc.) equilibrated with D-PBS (-) (Fujifilm Wako Pure Chemical Corporation) to separate and purify 24-mer FTL by size at a flow rate of 1.3 mL/minute. The purified ferritin was analyzed using a HIPrep 16/60 Sephacryl S-300 HR column (GE Healthcare Inc.) equilibrated with PBS at a flow rate of 0.5 mL/minute.
# ferritin (FTH) [2] = molecular target: T1, ferritin (FTH); test: Search for peptides capable of being encapsulated into ferritin by disassembly/reassembly process, LC-MS detection; details: encapsulation into ferritin (FTH); three trials
# Protocol: Peptides capable of being encapsulated into ferritin by disassembly/reassembly process were searched. In the disassembly/reassembly process, 1 mL of a 50 mM glycine hydrochloride buffer (pH 2.3) containing FTH at a final concentration of 5 mg/mL and the peptide at a final concentration of 0.5 mM, was left to stand at room temperature for 15 minutes. Next, 310 μL of a 1 M Tris hydrochloride buffer (pH 9.0) was added for neutralization, and left to stand at room temperature for 3 hours. After the standing, 1.2 mL of a 50 mM Tris hydrochloride buffer (pH 8.0) was added, and centrifuged (at 15,000 rpm for one minute). Thereafter, 2.5 mL of its supernatant was injected into a desalting column PD-10 (Sephadex G-25 filled product, GE Healthcare Inc.) equilibrated with a 50 mM Tris hydrochloride buffer (pH 8) for the elusion with 3.0 mL of a 50 mM Tris hydrochloride buffer (pH 8.0) to separate non-encapsulated peptides and ferritin. A whole amount (3.0 mL) of the resulting solution was concentrated to 0.1 mL by centrifugal ultrafiltration using Vivaspin 20-100K (GE Healthcare Inc.). The operation of adding 10 mL of a 50 mM Tris hydrochloride buffer to the concentrated solution and then concentrating was repeated twice to remove peptides that were not removed by PD-10 to obtain 0.1 mL of a sample solution. For the LC-MS analysis, 50 p1 of a 1 M glycine hydrochloride buffer (pH 2.3) was added to 50 μL of the sample solution and then the resulting solution was left to stand at room temperature for 15 minutes. To the solution, 900 μL of ethanol was added. Next, the resulting solution was stirred vigorously and then centrifuged (at 15,000 rpm for five minutes) for collection of the supernatant. The supernatant was analyzed using LCMS-2020 (Shimadzu Corporation) as LC-MS, Inertsil (Registered trademark) as a column, ODS-3, particle diameter of 2 μm and 2.1 mm×50 mm (GL science). Thereafter, 10 μL of the sample injected into the column was eluded at a flow rate of 0.2 mL/min for 10 minutes such that a mixing ratio of a solution A (0.1% formic acid/99.9% acetonitrile) and a solution B (50% water/50% acetonitrile) is from 95:5 to 95:5.
# The encapsulation of the peptide into ferritin was studied by comparing in terms of the amount of the peptide detected by LC/MS between the sample prepared by encapsulating the peptide into ferritin at the disassembly/reassembly process and the sample prepared simply by mixing ferritin with the peptide. For example, ClAc-FHC was eluted at a retention time of 0.8 minute. […] However, the peak was not observed for the sample prepared by simply mixing the peptide with ferritin without performing the disassembly/reassembly process (FIG. 12B). FIG. 13 to FIG. 17 illustrate LC-MS results for FTH in which the peptide was encapsulated at the disassembly/reassembly process.
# T1 sequence (P02794 whole entry): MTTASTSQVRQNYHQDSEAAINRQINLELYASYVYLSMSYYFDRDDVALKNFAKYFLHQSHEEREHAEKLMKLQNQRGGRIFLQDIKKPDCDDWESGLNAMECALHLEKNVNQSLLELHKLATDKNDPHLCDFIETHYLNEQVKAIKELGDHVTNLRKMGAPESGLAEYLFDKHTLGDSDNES
# T2 sequence (P02792 whole entry): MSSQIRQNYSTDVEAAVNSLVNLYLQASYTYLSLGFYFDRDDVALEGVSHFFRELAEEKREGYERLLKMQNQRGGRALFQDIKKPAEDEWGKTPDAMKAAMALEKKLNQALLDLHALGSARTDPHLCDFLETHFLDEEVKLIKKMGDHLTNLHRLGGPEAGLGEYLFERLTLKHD
substance,measurement,setting,value
"5(6)-FAM-RFARKGALRQKNVHEVKN (SEQ ID NO: 9) ({5(6)‑FAM}-RFARKGALRQKNVHEVKN) [PKC-F, fluorescent dye fluorescein (FAM)-modified peptide, linear]",molecules of peptide encapsulated in one molecule of ferritin on average,"ferritin (FTH) [1]; FTH, from molar ratio",8.5 molecules
same,encapsulation of peptide in FTH,"ferritin (FTH) [1]; absorbance at 480 nm at elution position of 24-mer FTH, LC-MS",encapsulated by the ferritin encapsulation operation without being decomposed
same,"incorporation into cells, fluorescence at the interior of cells",SKBR-3 cell,not confirmed
same,encapsulation of peptide in FTL,ferritin (FTL),encapsulated in FTL
same,encapsulation,ferritin (FTH) [2],A (“A” represents peptides with three times of confirmation of encapsulation.)
